The target in experiment [1] is T1, canine PD-1 ECD-6His.
T1 chain: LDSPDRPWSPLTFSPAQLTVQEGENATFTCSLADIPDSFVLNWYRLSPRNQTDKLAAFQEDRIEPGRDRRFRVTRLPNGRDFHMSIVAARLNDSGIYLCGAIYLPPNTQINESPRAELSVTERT
The experiment is described as follows: SPR; monovalent binding.

Experiment [2] addresses T2, canine PD-1 ECD-mFc.
T2 chain: T1 chain
The experiment is described as follows: SPR; avid. For orientation: Surface plasmon resonance follows binding to a sensor surface in real time, without labels.

Experiment [3] addresses T3, canine PD-1, full-length, membrane-embedded.
T3 chain: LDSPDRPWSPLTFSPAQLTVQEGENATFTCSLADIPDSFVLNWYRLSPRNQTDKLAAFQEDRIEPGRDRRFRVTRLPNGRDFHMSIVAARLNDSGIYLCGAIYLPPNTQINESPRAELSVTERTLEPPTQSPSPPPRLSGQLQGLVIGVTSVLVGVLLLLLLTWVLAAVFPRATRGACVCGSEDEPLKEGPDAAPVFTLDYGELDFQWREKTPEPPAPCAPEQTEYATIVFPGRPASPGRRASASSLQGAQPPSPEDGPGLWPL
The experiment is described as follows: flow cytometry; apparent Kd of cell binding. A general note: Flow cytometry measures light scatter and fluorescence of single cells or particles in a stream.

In experiment [4] the target is PMX-149. Description: flow cytometry; apparent Kd of cell binding.
Experiment [5] has as its target PMX-145. Description: flow cytometry; apparent Kd of cell binding.
Experiment [6] addresses PMX-147. Description: flow cytometry; apparent Kd of cell binding.
Experiment [7] concerns the target PMX-150. The experiment is described as follows: flow cytometry; apparent Kd of cell binding.

Changes are numbered by the printed parent chain.

Kd data for six molecules are collected here from patent US20240254231A1 (published 2024).

B1: PMX152 (antibody, V domains shown)
VH: EVQLVESGGDLVKPGGSLRLSCVASGFTFSRYYMNWVRQAPGKGPQWVAYINNAGSDRNYVDAVKGRFTISRDNAKNTLYLQMNSLRAEDTAVYYCASEIRGVVVVGHLDYWGQGTLVTVSS
VL: SYVLTQLPSKSVTLNQPAHITCGGDNIGSKSVHWYQQKLGQAPVLIIYYDSIRPTGIPERFSGATSGNTATLTISGALAEDEADYYCQVWDSSAKAWVFGEGTQLTVL
Take B1: the Kd came out at 24.2 nM in experiment [1] and 0.0318 nM in experiment [2].

B2: PMX151 (antibody, V domains shown)
VH: EVQLVESGGDLVKSGGSLRLSCVASGFTFNTYSMNWVRQAPGKGLQWVARIKSSGSSTTYADAVKGRFTVSRDIAKNTLFLQMNSLRAEDTALYYCASEPGARYEIYFVESFFDYWGQGTLVTVSS
VL: B1 VL with N15K, I52S, T65N, K95Q, V98I
With B2, the Kd was 1.7 nM in experiment [1], 2.97 nM in experiment [3] and 0.0322 nM in experiment [2].

B3: PD-1 (receptor)
chain: T3 chain
Consider B3, for which the Kd in experiment [4] was found to be 8.23 nM; in experiment [5] it was 5.75 nM; in experiment [6] it was 2.65 nM; in experiment [7], 6.83 nM.

B4: PMX126 (antibody, V domains shown)
VH: EVQLVESGGDLVKPAGSLRLSCLASGFTFSSYSMSWVRQAPEKGLQSVAGINSDGDRTYYTDAVKGRFTISRDNAKSTVYLQMNSLRAEDTAMYYCVRGFSSFNAFGYWGQGTLVTVSS
VL: DIVMTQTPLSLSVSPGETASISCKASQSLLHSDGNTYLSWFRQKPGQSPHRLIYAVSHRHPGVPDRFSGSGSGTDFTLRISRVEADDAGLYYCGQVIQDPWTFGAGTKVELK
As to B4, the Kd amounted to 6.8 nM in experiment [1], 1.05 nM in experiment [3] and 0.0297 nM in experiment [2].

B5: PMX125 (antibody, V domains shown)
VH: EVQLVESGGDLVKPGGSLRLSCVASGFSFSRYHMSWVRQAPGKGLQWVAYIISGGITTSYADAVKGRFTISRDNAKNTLFLQMNSLRAEDTAVYYCATYGSYFFDKWGQGTLVTVSS
VL: DIVMTQTPLSLSVSPGETASISCKASQSLLHSDGKSYLNWFRQKPGQSPQRLIYRVSNRDPGVPDRFSGSGSGTDFTLRISRVEADDTGLYYCGQVIQDPTFGAGTKVELK
As for B5, the Kd in experiment [1] was determined as 7.7 nM; in experiment [3], 1.07 nM; in experiment [2] it was 0.0348 nM.

B6: PMX127 (antibody, V domains shown)
VH: B5 VH with I52V, T57S, K106T
VL: B5 VL with S22F
For the molecule B6, the values for the Kd in experiment [1], in experiment [3] and in experiment [2] were 2.2 nM, 0.86 nM and 0.0024 nM, respectively.
